System: MS2 coat protein
Assay: apparent KD of MS2 coat protein; designed switch direction (-1 OFF switch, 1 ON switch): -1; higher = weaker reporter binding
How it was run: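 Transcription of designed RNA switches on Illumina chips was done by stalled E. coli RNA polymerase. SNAP-549-labelled MS2 coat protein was then titrated in doubling steps from 0.7 or 1.5 nM to 3 µM, with steps of 0.8–1.5 h at the lowest and 10–20 min at the highest concentration. The per-design median over clusters of curve-fitted normalised fluorescence is reported as apparent KD.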

[1] = Eterna round: R95, input ligand: microRNA oligo, concentration not stated
[2] = Eterna round: R95, input ligand: FMN 200 uM
[3] = Eterna round: R95, input ligand: none

| Sequence | apparent KD of MS2 coat protein (input ligand: FMN 200 uM) [µM] | apparent KD of MS2 coat protein (input ligand: microRNA oligo, concentration not stated) [µM] | apparent KD of MS2 coat protein (input ligand: none) [µM] | apparent KD of MS2 coat protein [1] [µM] | apparent KD of MS2 coat protein [2] [µM] | apparent KD of MS2 coat protein [3] [µM] |
| --- | --- | --- | --- | --- | --- | --- |
| CUUUUGUGAGGAUAUUAGUAGUAAAUAAAUAAAAUUAUUACUGAGAAGGCACAUGAGGAUCACCCAUGUUCCUC [salish99_ex4_r3_062] (Eterna round: R96, puzzle: Exclusion 4) | 0.533 | 0.0329 | 0.0366 | – | – | – |
| CUUUUGUGAGGAUAUUAGUAGUAAAUAAAUAAAAUUAUUACUGAGAAGGCACAUGAGGAUCACCCAUGUUCCUC [salish99_ex4_r3_062] (puzzle: Exclusion 4) | – | – | – | 0.0351 | – | – |
| CUUUUGUGAGGAUAUUAGUAGUAAAUAAUUAAAAUUAUUACUGAGAAGGCACAUGAGGAUCACCCAUGUUCCUC [Salish 062 v15] (Eterna round: R97, puzzle: Exclusion 4) | 0.752 | – | 0.0429 | – | – | – |
| CUUUUUGUCGAGGAUAUGCACCAGCUCACUGACGCAGAAGGCGACACAUGAGGAUCACCCAUGUCAGUUCGCGU [salish99_ex6_r004_433] (Eterna round: R97, puzzle: Exclusion 6) | 0.0353 | – | 0.02 | – | – | – |
| GAAAACCAAGGAUAUACAUGAGGAUCACCCAUGUAGGUUGGGACGCCAUAAAGGCGAUGUAGAAGGUGGGAAAA [Inansoge] (puzzle: Exclusion 3) | – | – | – | 0.0216 | – | – |
| GAAAACGAAGAGGAUAUUUGAUAUCAAAGCUUCAAAGAAGGCUUCACAUGAGGAUCACCCAUGUGAUCUUCAAU [Mat - Exclusion 6 - JL Mod - D15] (Eterna round: R97, puzzle: Exclusion 6) | 0.212 | – | 0.0245 | – | – | – |
| GAAAACGCAGAGGAUAUUUCAGAUCCUAGCUGCAAAGAAGGCUGCACAUGAGGAUCACCCAUGUGGUCCUGAAA [Quesina mod] (Eterna round: R97, puzzle: Exclusion 6) | 0.117 | – | 0.0386 | – | – | – |
| GAAAACGUAGGAUAUUAAUACUUAGACAUGAGGAUCACCCAUGUUUGGUGGGUCGGAGAAUGAGAAGGGCGAUGAA [EX5 #13] (Eterna round: R97, puzzle: Exclusion 5) | 0.107 | – | 0.153 | – | – | – |
| GAAAAGAAAGGAUAUACAGGGAAAUGAACCGCACGUAAACCACAUGAGGAUCACCCAUGUAGAAGGUUCAGUGC [Edenusra] (puzzle: Exclusion 2) | – | – | – | 0.0106 | – | – |
| GAAAAGGUAGGAUAUACGAAAAAAAAGGCUAGAAAAAAAACACAUGAGGAUCACCCAUGUAGAAGGACCAAAAG [salish99_ex2_r3_068] (puzzle: Exclusion 2) | – | – | – | 0.0288 | 0.0287 | 0.024 |
| GAAAAGGUAGGAUAUACGAAAAAAAAGGGCAGAAAAAAAACACAUGAGGAUCACCCAUGUAGAAGGACCAAAAG [salish99_ex2_r3_065] (puzzle: Exclusion 2) | – | – | – | 0.0243 | 0.0266 | 0.0232 |
| GAAAAGGUAGGAUAUACGAAAAAAAAGGGUACAAAAAAAACACAUGAGGAUCACCCAUGUAGAAGGACCAAAAG [salish99_ex2_r3_063] (puzzle: Exclusion 2) | – | – | – | 0.0256 | 0.0368 | 0.0208 |
| GAAAAGGUAGGAUAUACGAAAAAAAAGGGUAGAAAAAAGACACAUGAGGAUCACCCAUGUAGAAGGACCAAAAG [salish99_ex2_r3_019] (puzzle: Exclusion 2) | – | – | – | 0.0217 | 0.0625 | 0.0303 |
| GAAAAGGUAGGAUAUACGAAAAAAAAGGGUAGAAGAAAAACACAUGAGGAUCACCCAUGUAGAAGGACCAAAAG [salish99_ex2_r3_022] (puzzle: Exclusion 2) | – | – | – | 0.0186 | 0.107 | 0.0235 |
| GAAAAGGUAGGAUAUACGAAAAAAAAGGGUAGAGAAAAAACACAUGAGGAUCACCCAUGUAGAAGGACCAAAAG [salish99_ex2_r3_023] (puzzle: Exclusion 2) | – | – | – | 0.0271 | 0.0848 | 0.0267 |
| GAAAAGGUAGGAUAUACGAAAAGAAAGGGUAGAAAAAAAACACAUGAGGAUCACCCAUGUAGAAGGACCAAAAG [salish99_ex2_r3_027] (puzzle: Exclusion 2) | – | – | – | 0.0269 | 0.0587 | 0.025 |
| GAAAAGGUAGGAUAUACGGAAAAAAAGGGUAGAAAAAAAACACAUGAGGAUCACCCAUGUAGAAGGACCAAAAG [salish99_ex2_r3_030] (puzzle: Exclusion 2) | – | – | – | 0.0325 | 0.0609 | 0.0274 |
| GAAAAGGUAGGAUAUACGUAAAAAAAGGGUAGAAAAAAAACACAUGAGGAUCACCCAUGUAGAAGGACCAAAAG [salish99_ex2_r3_087] (puzzle: Exclusion 2) | – | – | – | 0.0247 | 0.0883 | 0.0206 |
| GAAAAUCGUAAGGAUAUCAGCGAAGAAGUACACUGAGAAGGUAUGACAUGAGGAUCACCCAUGUAGCCCGCUUA [Eternabot (L1) Solution 38] (Eterna round: R97, puzzle: Exclusion 6) | 0.018 | – | 0.0132 | – | – | – |
| GAAAAUUGAGGAUAUCCAAAAGGCCACAUGAGGAUCACCCAUGUGUAUCCUCGGCCCAAAGGAGAAGGCAAGAUAA [EX5 A.23] (Eterna round: R97, puzzle: Exclusion 5) | 0.974 | – | 5.08 | – | – | – |
| GAACCAUGAGGAUAUUCUGAUCCUAACAUGAGGAUCACCCAUGUGAGUACAAAAGUACUCGAAGAAGGCAUGGUUC [Omei Ex5 B2] (Eterna round: R97, puzzle: Exclusion 5) | 0.819 | – | 0.428 | – | – | – |
| GAACCUUGAGGAUAUACAUAACAACAAAGCCUCACGUGCCAACAUGAGGAUCACCCAUGUAGAAGGCAAGCCAA [Mod R3 Insanara 9 - Jieux - Exclusion 2] (Eterna round: R97, puzzle: Exclusion 2) | 0.019 | – | 0.0162 | – | – | – |
| GAAUAGCGAGGAUAUGCAAUGAAGGUAGUACGAUAUGGCUGACAUGAGGAUCACCCAUGUAGAAGGCGCUGAUC [EX2 #11] (Eterna round: R97, puzzle: Exclusion 2) | 0.116 | – | 0.0658 | – | – | – |
| GAAUAGGCAGGAUAUACAUGAGGAUCACCCAUGUGCAAGCGAAAGGUACGUGAACAACGUAGAAGGGCCUAAAC [ChP 13.04.2015 #10] (puzzle: Exclusion 3) | – | – | – | 0.0129 | 0.0243 | 0.0138 |
